Molecular target: T1, human complement factor H (human, UniProt P08603 19-1231)
T1 construct: complement factor H, human; used at 500 nM in the ELISA; also called FH; human FH
Test: ELISA; 1 µg histidine-tagged CspZ coated on wells, blocked with 5% BSA in PBS; PBS (control), irrelevant human IgG, #1139c or #1193c (0.4-50 nM) added, then 500 nM human FH; bound FH detected with sheep anti-human FH and donkey anti-sheep HRP
Details: both partners purified

T1 sequence (P08603 19-1231): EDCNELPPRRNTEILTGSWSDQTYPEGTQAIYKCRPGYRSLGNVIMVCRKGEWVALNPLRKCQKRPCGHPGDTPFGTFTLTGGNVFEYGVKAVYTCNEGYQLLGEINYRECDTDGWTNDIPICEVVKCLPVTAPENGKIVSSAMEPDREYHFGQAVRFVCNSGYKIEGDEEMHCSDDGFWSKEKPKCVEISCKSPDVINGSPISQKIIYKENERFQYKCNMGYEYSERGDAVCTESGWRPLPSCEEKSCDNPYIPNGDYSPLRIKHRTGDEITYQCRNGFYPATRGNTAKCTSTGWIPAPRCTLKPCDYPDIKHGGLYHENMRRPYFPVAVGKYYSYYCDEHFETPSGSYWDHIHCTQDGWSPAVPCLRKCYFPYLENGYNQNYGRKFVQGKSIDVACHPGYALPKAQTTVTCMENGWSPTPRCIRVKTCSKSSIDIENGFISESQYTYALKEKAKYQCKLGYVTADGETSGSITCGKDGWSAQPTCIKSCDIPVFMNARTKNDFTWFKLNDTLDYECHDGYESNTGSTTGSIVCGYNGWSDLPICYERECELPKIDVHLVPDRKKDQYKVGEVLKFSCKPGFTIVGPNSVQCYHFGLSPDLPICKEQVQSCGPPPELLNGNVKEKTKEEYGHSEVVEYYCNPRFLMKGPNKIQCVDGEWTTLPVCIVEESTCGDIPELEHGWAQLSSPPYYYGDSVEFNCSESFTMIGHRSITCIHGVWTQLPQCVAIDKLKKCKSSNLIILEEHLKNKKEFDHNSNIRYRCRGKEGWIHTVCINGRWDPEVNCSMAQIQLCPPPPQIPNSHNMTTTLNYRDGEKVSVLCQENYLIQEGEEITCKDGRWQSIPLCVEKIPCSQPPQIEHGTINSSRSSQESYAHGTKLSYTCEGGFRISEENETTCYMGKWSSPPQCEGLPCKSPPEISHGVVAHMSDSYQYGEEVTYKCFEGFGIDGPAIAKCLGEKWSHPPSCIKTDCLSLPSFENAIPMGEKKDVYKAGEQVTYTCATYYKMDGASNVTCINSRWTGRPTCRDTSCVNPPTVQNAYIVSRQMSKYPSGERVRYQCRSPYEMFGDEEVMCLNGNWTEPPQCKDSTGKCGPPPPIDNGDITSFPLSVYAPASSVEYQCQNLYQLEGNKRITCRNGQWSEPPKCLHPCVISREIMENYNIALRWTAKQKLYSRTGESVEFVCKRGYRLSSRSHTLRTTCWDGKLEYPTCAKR

B1: histidine-tagged CspZ (B. burgdorferi B31 CspZ) (natural protein)
chain: RLNQRNINELKIFVEKAKYYSIKLDAIYNECTGAYNDIMTYSEGTFSDQSKVNQAISIFKKDNKIVNKFKELEKIIEEYKPMFLSKLIDDFAIELDQAVDNDVSNARHVADSYKKLRKSVVLAYIESFDVISSKFVDSKFVEASKKFVNKAKEFVEENDLIALECIVKTIGDMVNDREINSRSRYNNFYKKEADFLGAAVELEGAYKAIKQTLL
notes: CspZ (BbCRASP-2), outer surface protein of Borrelia burgdorferi strain B31; codon-optimised synthetic DNA in pET28a (BamHI/SalI); this is a surmise; also called BbCRASP-2
Does B1 bind?
Result: binds

Source: publication PMC11973211, “Mechanistic insights into the structure-based design of a CspZ-targeting Lyme disease vaccine” (Nature Communications, 2025)
